The supplement of paper PMC12667976

B1: library; numbered along this chain (parent)
chain: MATDAALRRLLRLHRTEIAVAVDSAFPLLHALADHDVVPEDKFQETLHLKEKEGCPQAFHALLSWLLTQDSTAILDFWRVLFKDYNLERYGRLQPILDSFPKDVDLSQPRKGRKPPAVPKALVPPPRLPTKRKASEEARAAAPAALTPRGTASPGSQLKAKPPKKPESSAEQQRLPLGNGIQTMSASVQRAVAMSSGDVPGARGAVEGILIQQVFESGGSKKCIQVGGEFYTPSKFEDSGSGKNKARSSSGPKPLVRAKGAQGAAPGGGEARLGQQGSVPAPLALPSDPQLHQKNEDECAVCRDGGELICCDGCPRAFHLACLSPPLREIPSGTWRCSSCLQATVQEVQPRAEEPRPQEPPVETPLPPGLRSAGEEVRGPPGEPLAGMDTTLVYKHLPAPPSAAPLPGLDSSALHPLLCVGPEGQQNLAPGARCGVCGDGTDVLRCTHCAAAFHWRCHFPAGTSRPGTGLRCRSCSGDVTPAPVEGVLAPSPARLAPGPAKDDTASHEPALHRDDLESLLSEHTFDGILQWAIQSMARPAAPFPS

Variants of: B1
Experiment: AIRE transcriptional activation functional score (insulin promoter-GFP; nonsense median 0, synonymous median 1) (normalised score); higher = higher AIRE activity (more reporter activation)
Details: with insulin promoter-GFP reporter in HEK293
Protocol: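 Deep mutational scan of full-length human AIRE (codon-optimized cDNA, DT-POPCode NNN libraries over three regions) integrated at a Bxb1 landing pad in HEK293 cells carrying an insulin core promoter-GFP reporter at a Flp-In site. Cells were sorted for the top 10% GFP about 14 days after transfection. Variant frequency log-ratios (select vs non-select, TileSeq) were rescaled so that the nonsense median is 0 and the synonymous median is 1, then averaged over biological replicates.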

AIRE transcriptional activation functional score of substitutions, site by site:
L255: D 0.362; F 1.43; T 0.506; H 1.28; G 1.24; R 0.419; S 0.79; E 0.58; P 1.03; I 0.98; A 0.9; Q 1.01; N 0.614; C 0.506; Y 0.945; M -0.804; W 1.1; V 1
A261: R 0.741; S 0.631; Y 1.12; T 1.07; H 0.579; G 1.01; Q 1.17; K 0.843; M 1.19; E 1.11; W 1.33; D 0.731; N 0.506; C 1.11; F 1.22; I 0.612; P 1.06; L 0.746; V 1.13
A265: V 1.11; K 0.641; S 1.03; I 0.975; Q 0.479; T 1.01; D 0.751; C 0.821; P 0.806; N 1.54; M 1.55; H 0.76; F 1.53; E 0.963; L 1.21; W 0.598; G 0.964; Y 1.25; R 0.748
R257: G 0.771; I 0.805; D 1.16; K 0.866; W 0.743; V 0.256; M 0.588; S 0.904; Q 0.729; E 1.12; F 0.785; N -1.39; C -0.159; A 0.916; T 0.86; L 0.834; P 0.935
A264: I -1.66; T 1.22; H 1.68; Q 0.566; W 1.57; M 1.01; V 1.07; C 0.799; Y -0.0795; K 0.671; F 1; D -0.0126; G 1.29; E 0.901; R 1.05; P 0.912; S 1.18; L 1.18
P252: F 0.977; G 0.0827; T 0.961; S 1.03; C 0.763; M 1.88; Y 0.649; D 0.862; L 1.15; R 0.567; V 1.35; I 0.937; H 0.544; N 1.41; W 0.608; Q 0.904; A 1.02
G269: C 0.879; H 0.996; A 1.39; F 1.42; E 1.1; I 1.06; D 0.649; K 1.07
K259: H 0.439; I 0.551; M 1.2; D -0.753; Q 0.922; G -0.585; S 0.917; L 0.941; R 0.916; P 0.82; Y 1.31; T 0.966; F 1.08; W 1.19; E 0.714; A 1.23; C 1.33; N 1.03
Q262: T 0.795; N 1.13; V 0.657; H 0.819; L 1.31; W 1.26; P 1.16; G 1.33; E 1.38; M 0.443; C 0.939; D 1.13; K 0.987; S 0.84; F 1.61; Y 1.05; A 1.2; I 1.04; R 0.909
S250: W 0.939; Y 1.26
G263: C 0.73; W 1.29; H 0.227; L 0.99; S 1.23; I -0.607; P 0.887; E 1.42; R 0.812; T 1.06; D 1.31; F 0.212; V 1.25; K 1.27; A 0.875; Q -0.785; Y 1.34; M 0.957
G251: W 1.36; C 0.932; E 1.44; Q 0.448; A 0.845; N -0.159; M 0.603; K 1.05; V 1.22; P -0.0792; I 1.2; H 1.02; S 0.796; R 0.585; F 1.2; Y 1.42; T 1.09; D 1.2; L 1.21
G268: F 1.38; A 0.981; L 1.05; N 0.988; Q 0.515; V 1.02; R 1.09; I 1.19; Y 0.298; C 1.21; M 1.12; H 0.564; P 0.869; K 0.831; D 0.854; W 1.62; T 0.742; S 1.09; E 1.14
V256: I 0.599; W 1.37; G 1.05; K 0.102; E 0.8; H 0.851; T 0.8; A 1.16; M 0.911; P 0.878; N 0.685; L 0.974; C 0.771; D 0.705; Q 0.671; F 1.33; Y 1.39; S 1.07; R 0.207
K253: Q 1.95; Y 0.499; E 0.587; M 1.04; G 0.631; D -0.542; S 0.754; L 0.694; P 0.292; V 0.867; I 0.921; R 0.777; T 0.479; F 0.823; W 1.23; N 0.817; C 1.39; A 1.28
G267: W 1.49; N 0.868; E 1.87; L 0.938; Y 1.02; V 1.12; A 0.9; S 0.894; I 1.18; D 0.595; R 0.84; H 1.38; P 0.902; C 1.11; T 1.8
P266: C 1.09; R 0.795; A 1.01; Y 1.06; T 1.05; S 0.824; H 1.08; E 0.486; L 0.925; Q 0.916; V 0.93; N 0.956; M 1.44; F 1.38; K 1.19; D 0.85; G 0.877; W 0.984; I 1.13
G260: K 0.721; T 1.26; A 0.8; E 1.03; H 1.19; S 1.12; N 1.12; M 2.15; W 1.18; L 1.29; R 1.04; D 0.772; Y 1.14; V 1.3; F 0.949; C 1.01; I 1.39
A258: V 1.36; G 0.943; W 1.05; M 0.409; P 1.23; R 0.0043; T 0.978; L 0.814; E 1.13; I 0.643; H 1.05; C 1.18; F 1.19; D 0.387; S 0.657; Q 0.586
P254: G 0.342; A 0.885; H 0.946; M 0.826; N -0.115; E 0.818; R 0.606; W 1.07; I 0.86; S 0.995; Q 1.2; C 1.24; D 0.547; L 1.01; T 0.737; K 0.683; Y 1.28; V 1.27; F 0.266
